Test results as given in PMC6076269, “Structure and nucleic acid binding properties of KOW domains 4 and 6–7 of human transcription elongation factor DSIF”.

B1: dsDNA2 (dsDNA)
DNA 1: GAAAATTGGGTAAG
DNA 2: CTTACCCAATTTTC
B2: dsDNA1 (dsDNA)
DNA 1: CTTATTGAATTA
DNA 2: TAATTCAATAAG

Target: hSpt5 KOW4 (S522-G647) (Homo sapiens, UniProt O00267 522-647)
Test: fluorescence anisotropy; 50 nM nucleic acid; Fluorescence anisotropy: 25 mM Tris/HCl pH 7.0, 50 mM NaCl, 25 C (buffer printed for duplex annealing, named fluorescence buffer); NMR with Rpb4/7 (Fig 7): 50 mM Na phosphate pH 7.0, 50 mM NaCl, 1 mM DTT, 298 K
Settings: protein: recombinant, tags: His6-GB1 removed by TEV
[1] = label: 5' 6-FAM on strand 1, blunt

| Binder | Kd [1] [µM] | Kd (label: 5' 6-FAM) [µM] |
| --- | --- | --- |
| B1 | 41.2 ± 9 | – |
| CTTATTGAATTA (ssDNA) [ssDNA1] | – | 12.2 ± 0.6 |
| GAAAATTGGGTAAG (ssDNA) [ssDNA2] | – | 24.5 ± 3.2 |
| B2 | 20.1 ± 0.4 | – |
| GGCGGUAGCGUG (ssRNA) [ssRNA] | – | 39.5 ± 7.4 |
